pKd: −log10 of the molar value.
Key:
[1] = target: gp39 (CD40 ligand) (human) (UniProt P29965); test: cell-based or functional assay
[2] = target: p75^NGFR (human, on B lymphocytes) (human) (UniProt P08138); test: equilibrium binding of 125I-NGF, Scatchard analysis, large (in vivo activated) human tonsil B cells, low-affinity class of sites
[3] = target: low-affinity NGF binding sites on murine unfractionated sIg^+ B cells (mouse) (UniProt Q9Z0W1); test: equilibrium binding of 125I-NGF on acid-treated murine splenic B lymphocytes (unfractionated sIg+ cells), low-affinity sites
UniProt Q9Z0W1, sequence (Q9Z0W1 32-427): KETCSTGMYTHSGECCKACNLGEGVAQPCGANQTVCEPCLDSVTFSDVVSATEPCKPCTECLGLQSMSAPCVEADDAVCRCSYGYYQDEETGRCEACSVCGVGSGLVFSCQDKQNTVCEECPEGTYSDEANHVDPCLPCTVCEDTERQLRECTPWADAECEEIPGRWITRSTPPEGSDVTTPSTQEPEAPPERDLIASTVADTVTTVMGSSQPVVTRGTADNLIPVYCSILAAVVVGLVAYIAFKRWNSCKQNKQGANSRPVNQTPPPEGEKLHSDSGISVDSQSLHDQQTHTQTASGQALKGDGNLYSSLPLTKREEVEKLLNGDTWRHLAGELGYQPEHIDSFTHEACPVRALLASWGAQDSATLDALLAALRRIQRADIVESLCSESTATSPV

[4] = target: p75^NGFR (human, on B lymphocytes) (human) (UniProt P08138); test: equilibrium binding of 125I-NGF, Scatchard analysis, small resting human B lymphocytes after acid (pH 3.0) treatment, low-affinity receptors
[5] = target: high-affinity NGF binding sites on murine unfractionated sIg^+ B cells (mouse) (UniProt Q3UFB7); test: equilibrium binding of 125I-NGF on acid-treated murine splenic B lymphocytes (unfractionated sIg+ cells), high-affinity sites
UniProt Q3UFB7, sequence (Q3UFB7 34-799): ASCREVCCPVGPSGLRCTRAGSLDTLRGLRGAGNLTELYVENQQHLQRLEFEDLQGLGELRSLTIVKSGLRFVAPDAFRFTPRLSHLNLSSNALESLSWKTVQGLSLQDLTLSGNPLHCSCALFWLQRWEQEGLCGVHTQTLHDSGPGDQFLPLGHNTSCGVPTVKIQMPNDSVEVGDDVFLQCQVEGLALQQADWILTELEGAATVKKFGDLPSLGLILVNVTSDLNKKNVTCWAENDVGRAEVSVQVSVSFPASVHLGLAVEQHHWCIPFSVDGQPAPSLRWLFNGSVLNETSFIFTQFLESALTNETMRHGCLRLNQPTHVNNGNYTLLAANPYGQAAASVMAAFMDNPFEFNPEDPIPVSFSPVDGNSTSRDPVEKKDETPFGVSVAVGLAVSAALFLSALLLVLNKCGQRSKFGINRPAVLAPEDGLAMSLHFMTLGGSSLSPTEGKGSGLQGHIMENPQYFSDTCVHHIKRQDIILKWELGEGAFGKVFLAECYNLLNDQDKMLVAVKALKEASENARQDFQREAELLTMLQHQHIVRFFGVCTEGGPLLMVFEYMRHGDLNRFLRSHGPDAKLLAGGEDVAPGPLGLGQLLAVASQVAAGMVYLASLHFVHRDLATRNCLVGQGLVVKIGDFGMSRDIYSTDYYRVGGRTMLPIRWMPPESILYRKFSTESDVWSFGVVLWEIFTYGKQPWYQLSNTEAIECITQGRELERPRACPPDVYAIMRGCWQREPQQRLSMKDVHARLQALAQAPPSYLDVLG

UniProt P08138, sequence (P08138 29-427): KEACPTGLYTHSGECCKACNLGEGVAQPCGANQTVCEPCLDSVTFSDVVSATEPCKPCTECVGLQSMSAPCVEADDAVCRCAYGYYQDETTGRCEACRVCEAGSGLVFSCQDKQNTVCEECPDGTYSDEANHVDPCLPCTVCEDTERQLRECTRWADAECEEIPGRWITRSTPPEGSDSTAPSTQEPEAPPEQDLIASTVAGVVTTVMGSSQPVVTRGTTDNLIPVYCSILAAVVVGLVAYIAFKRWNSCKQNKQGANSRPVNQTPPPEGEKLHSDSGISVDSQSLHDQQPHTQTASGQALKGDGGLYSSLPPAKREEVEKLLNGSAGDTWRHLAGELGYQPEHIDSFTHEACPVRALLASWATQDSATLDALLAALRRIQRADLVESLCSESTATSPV
UniProt P29965, sequence (P29965 whole entry): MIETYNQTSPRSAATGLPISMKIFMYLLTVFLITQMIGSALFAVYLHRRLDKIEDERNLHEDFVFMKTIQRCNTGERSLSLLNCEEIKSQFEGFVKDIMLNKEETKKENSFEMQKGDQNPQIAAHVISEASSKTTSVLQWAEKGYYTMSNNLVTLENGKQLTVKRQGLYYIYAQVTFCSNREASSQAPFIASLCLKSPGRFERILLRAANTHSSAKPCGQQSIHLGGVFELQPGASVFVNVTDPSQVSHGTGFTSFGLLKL

IgA (ng/ml) in supernatants of PWM-stimulated human PBMNC, PWM + CD40µ (CD4µ control 9,865) [1]	IgG (ng/ml) in supernatants of PWM-stimulated human PBMNC, PWM + CD40µ (CD4µ control 1,024) [1]	IgM (ng/ml) in supernatants of PWM-stimulated human PBMNC, PWM + CD40µ (CD4µ control 928) [1]	pKd [2]	binding sites/cell (binding sites/cell) [2]	pKd [3]	binding sites per cell (binding sites per cell) [3]	pKd [4]	binding sites/cell (binding sites/cell) [4]	pKd [5]	binding sites per cell (binding sites per cell) [5]	Substance
4790 ng/mL	554 ng/mL	1530 ng/mL									soluble CD40 pentamer (from UniProt P25942 21-193)
			9.00	1e+06	8.96	1e+06	9.00	1e+06	9.87	4800	^125I-NGF (Nerve Growth Factor, radio-iodinated, Amersham) (ligand)
